Numbering of substitutions follows the chain as printed. Numbers in names are those of the source.
B1: human peroxiredoxin IV C51A mutant (residues 37-271 of the preprotein) (enzyme, UniProt Q13162 37-271, looked up)
chain: GWETEERPRTREEEAHFYAGGQVYPGEASRVSVADHSLHLSKAKISKPAPYWEGTAVIDGEFKELKLTDYRGKYLVFFFYPLDFTFVCPTEIIAFGDRLEEFRSINTEVVACSVDSQFTHLAWINTPRRQGGLGPIRIPLLSDLTHQISKDYGVYLEDSGHTLRGLFIIDDKGILRQITLNDLPVGRSVDETLRLVQAFQYTDKHGEVCPAGWKPGSETIIPDPAGKLKYFDKLN
B2: human peroxiredoxin IV, wild type, full-length mature protein (residues 37-271 of the preprotein) (enzyme, UniProt Q13162 37-271, looked up)
chain: B1 chain with A15C
B3: human peroxiredoxin IV C245A resolving cysteine mutant, sulfenylated at the peroxidatic cysteine (enzyme, UniProt Q13162 37-271, looked up)
chain: B1 chain with A15C, C209A
modifications: cysteine sulfenic acid at Cys-124 (peroxidatic cysteine)
B4: human peroxiredoxin IV C245A resolving cysteine mutant, reduced (enzyme, UniProt Q13162 37-271, looked up)
chain: B1 chain with A15C, C209A
B5: PrxIII (enzyme, UniProt P30048 62-256, looked up)
chain: APAVTQHAPYFKGTAVVNGEFKDLSLDDFKGKYLVLFFYPLDFTFVCPTEIVAFSDKANEFHDVNCEVVAVSVDSHFSHLAWINTPRKNGGLGHMNIALLSDLTKQISRDYGVLLEGSGLALRGLFIIDPNGVIKHLSVNDLPVGRSVEETLRLVKAFQYVETHGEVCPANWTPDSPTIKPSPAASKEYFQKVNQ

How the values were obtained:
crystal structure [1] = target: the molecule itself; assay: crystal structure
SEC = target: the molecule itself; assay: SEC
crystal structure [2] = target: the molecule itself; assay: crystal structure; remark: listed apart in the source

| Protein | stoichiometry N (crystal structure [1]) | stoichiometry N (SEC) | further results |
| --- | --- | --- | --- |
| B1 | 10 | – | – |
| B2 | – | 10 | – |
| B3 | – | – | stoichiometry N (crystal structure [2]): 10 |
| B4 | 10 | – | – |
| B5 | – | 2 | – |

Source: article PMC3234919 (The Journal of Biological Chemistry, 2011)
